Changes are numbered by the printed parent chain. Names and notes keep the numbering of the source.
T1: cynomolgus CX3CR1 (cynomolgus monkey (Macaca fascicularis), UniProt P49238 1-355 (human entry))
T1 construct: Overexpressed on CHO K1 cells; also called cyno CX3CR1; cyCX3CR1
T1 chain: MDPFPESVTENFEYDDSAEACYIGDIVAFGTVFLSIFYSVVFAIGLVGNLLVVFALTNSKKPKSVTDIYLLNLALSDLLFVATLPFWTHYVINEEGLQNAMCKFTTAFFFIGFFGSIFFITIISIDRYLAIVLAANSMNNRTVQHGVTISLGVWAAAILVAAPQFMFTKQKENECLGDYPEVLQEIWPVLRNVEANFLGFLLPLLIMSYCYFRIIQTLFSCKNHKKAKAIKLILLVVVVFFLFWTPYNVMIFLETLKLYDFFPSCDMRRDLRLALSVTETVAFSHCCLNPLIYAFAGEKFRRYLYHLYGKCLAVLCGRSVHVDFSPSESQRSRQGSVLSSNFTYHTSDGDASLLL

T2: human CX3CR1 V249I (human, UniProt P49238 1-355)
T2 construct: Transiently transfected in HEK293T cells (pcDNA3.1); also called huCX3CR1 variant V249I (Rs3732379); printed V2491 in the text
T2 sequence: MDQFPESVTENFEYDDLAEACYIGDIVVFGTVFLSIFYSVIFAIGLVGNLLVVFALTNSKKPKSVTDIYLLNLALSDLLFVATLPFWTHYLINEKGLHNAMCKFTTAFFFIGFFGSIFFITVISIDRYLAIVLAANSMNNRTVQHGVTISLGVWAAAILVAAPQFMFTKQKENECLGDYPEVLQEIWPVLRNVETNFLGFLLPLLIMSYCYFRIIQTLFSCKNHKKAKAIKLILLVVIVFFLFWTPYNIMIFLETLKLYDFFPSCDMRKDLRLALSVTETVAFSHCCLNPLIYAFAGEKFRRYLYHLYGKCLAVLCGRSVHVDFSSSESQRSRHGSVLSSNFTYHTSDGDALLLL

B1: A041600035 (VHH)
chain: DVQLVESGGGSVQPGGSLRLSCAASGSIFSSTAMAWYRQAPGKQRDLVAVISTVGITKYADSVKGRFTISRDNAKNTVYLQMNSLRPEDTALYYCTSDARRGWDTRYWGQGTLVTVSSGGGGSGGGSEVQLVESGGGSVQPGGSLRLSCAASGSIFSSTAMAWYRQAPGKQRDLVAVISTVGITKYADSVKGRFTISRDNAKNTVYLQMNSLRPEDTALYYCTSDARRGWDTRYWGQGTLVTVSSGGGGSGGGSEVQLVESGGGVVQPGGSLRLSCAASGFTFRSFGMSWVRQAPGKGPEWVSSISGSGSDTLYADSVKGRFTISRDNSKNTLYLQMNSLRPEDTALYYCTIGGSLSRSSQGTLVTVSSA
notes: Trivalent ISVD construct (two anti-CX3CR1 ISVDs, one anti-albumin ISVD), C-terminal alanine included in the entry; also called 54A12_SO (E1D)-9GS-54A12_SO-9GS-ALB23002-A
B2: A041600041 (VHH)
chain: B1 chain with Q171R, V177A, S179N, I183V, A226P
notes: Trivalent ISVD construct (two anti-CX3CR1 ISVDs, one anti-albumin ISVD), C-terminal alanine included in the entry; also called 54A12_SO (E1D)-9GS-66B02_SO-9GS-ALB23002-A
B3: A041600025 (VHH)
chain: DVQLVESGGGSVQPGGSLRLSCAASGSIFSSTAMAWYRQAPGKQRDLVAVISTVGITKYADSVKGRFTISRDNAKNTVYLQMNSLRPEDTALYYCTSDARRGWDTRYWGQGTLVTVSSGGGGSGGGSEVQLVESGGGVVQPGGSLRLSCAASGFTFRSFGMSWVRQAPGKGPEWVSSISGSGSDTLYADSVKGRFTISRDNSKNTLYLQMNSLRPEDTALYYCTIGGSLSRSSQGTLVTVSSGGGGSGGGSEVQLVESGGGSVQPGGSLRLSCAASGSIFSSTAMAWYRQAPGKQRDLVAVISTVGITKYADSVKGRFTISRDNAKNTVYLQMNSLRPEDTALYYCTSDARRGWDTRYWGQGTLVTVSSA
notes: Trivalent ISVD construct (two anti-CX3CR1 ISVDs, one anti-albumin ISVD), C-terminal alanine included in the entry; also called 54A12_SO (E1D)-9GS-ALB23002-9GS-54A12_SO-A
B4: A041600034 (VHH)
chain: B3 chain with Q295R, V301A, S303N, I307V, A350P
notes: Trivalent ISVD construct; also called 54A12_SO (E1D)-9GS-ALB23002-9GS-66B02_SO-A
B5: A041600085 (VHH)
chain: DVQLVESGGGLVQPGGSLRLSCAASGSIFSSTAMAWYRQAPGKRRDLVAAISTVGVTKYADSVKGRFTISRDNSKNTVYLQMNSLRPEDTAVYYCTSDPRRGWDTRYWGQGTLVTVSSGGGGSGGGSEVQLVESGGGVVQPGGSLRLSCAASGFTFRSFGMSWVRQAPGKGPEWVSSISGSGSDTLYADSVKGRFTISRDNSKNTLYLQMNSLRPEDTALYYCTIGGSLSRSSQGTLVTVSSGGGGSGGGSEVQLVESGGGLVQPGGSLRLSCAASGSIFSSTAMAWYRQAPGKRRDLVAAISTVGVTKYADSVKGRFTISRDNSKNTVYLQMNSLRPEDTAVYYCTSDPRRGWDTRYWGQGTLVTVSSA
notes: also called 307-9GS-ALB23002-9GS-307 (D1E)-A

target: T3, human CCR5 (human, UniProt P51681 1-352); experiment: flow cytometry on CHO-K1 cells expressing human CCR5
T3 construct: whole, on cells; also called huCCR5
T3 sequence (P51681 whole entry): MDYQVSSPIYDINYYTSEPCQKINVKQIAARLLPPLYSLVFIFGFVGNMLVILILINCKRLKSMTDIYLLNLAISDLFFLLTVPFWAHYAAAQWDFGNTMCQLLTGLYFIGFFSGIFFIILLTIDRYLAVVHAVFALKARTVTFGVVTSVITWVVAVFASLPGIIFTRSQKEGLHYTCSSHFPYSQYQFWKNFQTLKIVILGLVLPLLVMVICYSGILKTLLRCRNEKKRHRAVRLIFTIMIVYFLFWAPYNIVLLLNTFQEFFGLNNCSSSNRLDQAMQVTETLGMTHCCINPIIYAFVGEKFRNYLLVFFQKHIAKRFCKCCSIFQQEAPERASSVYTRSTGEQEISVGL
Procedure: (§1) CHO cells overexpressing human or cynomolgus CX3CR1 were generated using techniques known in the art. Cells were harvested and resuspended in assay buffer (PBS, 2% FBS, 0.05% NaN3) and seeded separately in 384-well Bio-One V-bottom plates (Greiner, Cat. No. 781280), with a total of 2E04 cells seeded per well. After washing, serial dilutions of multivalent ISVD construct (starting from 250 nM, 3-fold dilution, 11 points, diluted in assay buffer), were added and incubated for 4 hours at 4° C. Binding was performed in the presence of 30 uM HSA (Sigma-Aldrich, Cat. No. A8763). Plates were then washed 3 times and cells were incubated with an anti-VHH mouse antibody (3300-fold diluted in assay buffer) for 30 minutes at 4′° C. […] Plates were finally washed 3 times and cells were resuspended in PI (Miltenyi Biotec, Cat. No. 130-093-233, 1000-fold diluted in assay buffer). Cell suspensions were analyzed with iQue Screener PLUS (Intellicyt). EC50s were estimated by dose response modelling. Curves were fit using 4 parameter logistic regression in GraphPad (GraphPad Software Inc.). A purified anti-human CX3CR1 antibody [K0124E1] (BioLegend, Cat. No. 355701/355702) was used as positive control to detect CX3CR1 expression on the cell surface.
Specificity of the 5 selected multivalent ISVD constructs for the huCX3CR1 receptor was evaluated by performing a FACS binding experiment on CHO-K1 cells expressing human CCR2 or human CCR5. CHO cells overexpressing huCCR2 or huCCR5 were generated using techniques known in the art. Binding of the multivalent ISVD constructs to huCR2 or huCCR5 expressed on the cell surfaces was examined by flow cytometry as described in example 5.1.

binding result | Binder
no binding | B1
no binding | B2
no binding | B3
no binding | B4
no binding | B5

Target: T1, cynomolgus CX3CR1
Experiment: flow cytometry on CHO K1 cyCX3CR1 cells, 30 uM HSA
Procedure: as §1

EC50 | top | Binder
0.24 nM | 411000 | B1
0.15 nM | 346000 | B2
0.36 nM | 266000 | B3
0.45 nM | 273000 | B4
0.56 nM | 186000 | B5

target: T2, human CX3CR1 V249I; experiment: flow cytometry on transiently transfected HEK293T cells, human CX3CR1 V249I
Procedure: as §1, with “After” for “CHO cells overexpressing human or cynomolgus CX3CR1 were generated using techniques known in the art. Cells were harvested and resuspended in assay buffer (PBS, 2% FBS, 0.05% NaN3) and seeded separately in 384-well Bio-One V-bottom plates (Greiner, Cat. No. 781280), with a total of 2E04 cells seeded per well. After”
Two important SNPs are described in huCX3CR1, i.e. V2491 (Rs3732379) and T280M (Rs3732378), which might influence receptor activity and binding by the ISVD. […] Different combinations of these SNPs were introduced in human CX3CR1, and binding by 5 selected multivalent ISVD constructs was assessed with flow cytometry after transient transfection of the huCX3CR1 variants in HEK293T cells.
In short, the CX3CR1 constructs were cloned into pcDNA3.1 (ThermoFisher Scientific, Cat. No. V79020) and plasmid DNA was prepared from Escherichia coli TOP10 cells. HEK293T cells were seeded at a concentration of 1.5E06 cells per T75 flask and incubated overnight at 37° C. in DMEM medium (Gibco, Cat. No. 31966) supplemented with 10% FBS (Sigma. Cat. No. F7524). The medium was then replaced by Opti-MEM medium (Gibco, Cat. No. 31985). A mixture of 9 μg plasmid DNA, 27 μL Fugene 6 (Promega, Cat. No. E2691) in a final volume of 1 mL Opti-MEM was incubated for 15 minutes at room temperature and then added to the cells. After 3 hours incubation at 37° C., 10 mL of DMEM supplemented with 20% FBS was added, and incubation continued.

EC50 | Binder
0.25 nM | B1
0.089 nM | B2
0.045 nM | B4
0.057 nM | B5

Target: T1, cynomolgus CX3CR1
Experiment: competition flow cytometry vs soluble huCX3CL1-AF647 on CHO K1 cyCX3CR1 cells, 30 uM HSA

% inhibition | IC50 | Binder
105% | 1.1 nM | B1
107% | 1.8 nM | B2
104% | 1.7 nM | B3
104% | 1.8 nM | B4
102% | 1.1 nM | B5

Reference: US20240117038A1 (Ablynx, published 2024)
